Numbering of substitutions follows the chain as printed.
B1: A007901255, monovalent form (VHH)
VHH: DVQLVESGGGLVQPGGSLRLSCAASGFTFDDYAIGWFRQAPGEEREGVSSISSTYGLTYYADSVKGRFTISSDNSKNTVYLQMNSLRPEDTAVYYCAATPIGLIGLDAYEYDYWGQGTLVTVSS
notes: anti-c-MET Nanobody
B2: A007901260, monovalent form (VHH)
VHH: B1 VHH with T28A, E46L
notes: anti-c-MET Nanobody
B3: A007901259, monovalent form (VHH)
VHH: B1 VHH with E46L
notes: anti-c-MET Nanobody
B4: A007901256, monovalent form (VHH)
VHH: B1 VHH with T28A
notes: anti-c-MET Nanobody
B5: SEQ ID NO 76 (VHH)
VHH: EVQLVESGGGLVQPGGSLRLSCAASRSIGRLDRMGWYRHRPGEPRELVATITGGSSINYGDSVKGRFTISIDNSKNTVYLQMNSLRPEDTAVYYCNFNKYVTSRDTWGQGTLVTVSS
notes: C-terminal: GGG
B6: SEQ ID NO 79 (VHH)
VHH: B5 VHH
notes: C-terminal: GG

Columns and labels:
[1] = molecular target: T1, cMet/Fc (UniProt P08581 25-932); assay: HGF-competition Alphascreen, monovalent form
T1 construct: not shown: Fc part not specified

[2] = molecular target: T2, purified interference factor(s) from serum of Donor C; assay: Biacore, immobilized interference factor
T2 construct: text names Donors 8, 19 and 30

[3] = molecular target: T3, purified interference factor(s) from serum of Donor A; assay: Biacore, immobilized interference factor
T3 construct: text names Donors 8, 19 and 30

[4] = molecular target: T4, purified interference factor(s) from serum of Donor B; assay: Biacore, immobilized interference factor
T4 construct: text names Donors 8, 19 and 30

[5] = molecular target: T5, monoclonal antibody 21-4-3; assay: Biacore, captured 21-4-3
T5 construct: mouse IgG1 heavy chain, kappa light chain; also called mAb21-4-3; produced by hybridoma ABH0015 (LMBP-9680-CB)
Description: Binding measurements were performed using a Biacore T100 using a CM5 T120416 sensor chip, with running buffer HBS-EP+, 25° C. […] The anti-mouse IgG used was a polyclonal rabbit anti-mouse IgG antibodies reacting with all IgG subclasses, IgA and IgM (GE Healthcare; Cat#BR-1008-38; Lot#10056316). Immobilisation of the anti-mouse IgG was performed using manual amine coupling using a 7 minute injection of EDC/NHS for activation and a 7 minute injection of 1M ethanolamine HCl pH 8.5 for deactivation (Biacore, amine coupling kit).

T1 sequence (P08581 25-932): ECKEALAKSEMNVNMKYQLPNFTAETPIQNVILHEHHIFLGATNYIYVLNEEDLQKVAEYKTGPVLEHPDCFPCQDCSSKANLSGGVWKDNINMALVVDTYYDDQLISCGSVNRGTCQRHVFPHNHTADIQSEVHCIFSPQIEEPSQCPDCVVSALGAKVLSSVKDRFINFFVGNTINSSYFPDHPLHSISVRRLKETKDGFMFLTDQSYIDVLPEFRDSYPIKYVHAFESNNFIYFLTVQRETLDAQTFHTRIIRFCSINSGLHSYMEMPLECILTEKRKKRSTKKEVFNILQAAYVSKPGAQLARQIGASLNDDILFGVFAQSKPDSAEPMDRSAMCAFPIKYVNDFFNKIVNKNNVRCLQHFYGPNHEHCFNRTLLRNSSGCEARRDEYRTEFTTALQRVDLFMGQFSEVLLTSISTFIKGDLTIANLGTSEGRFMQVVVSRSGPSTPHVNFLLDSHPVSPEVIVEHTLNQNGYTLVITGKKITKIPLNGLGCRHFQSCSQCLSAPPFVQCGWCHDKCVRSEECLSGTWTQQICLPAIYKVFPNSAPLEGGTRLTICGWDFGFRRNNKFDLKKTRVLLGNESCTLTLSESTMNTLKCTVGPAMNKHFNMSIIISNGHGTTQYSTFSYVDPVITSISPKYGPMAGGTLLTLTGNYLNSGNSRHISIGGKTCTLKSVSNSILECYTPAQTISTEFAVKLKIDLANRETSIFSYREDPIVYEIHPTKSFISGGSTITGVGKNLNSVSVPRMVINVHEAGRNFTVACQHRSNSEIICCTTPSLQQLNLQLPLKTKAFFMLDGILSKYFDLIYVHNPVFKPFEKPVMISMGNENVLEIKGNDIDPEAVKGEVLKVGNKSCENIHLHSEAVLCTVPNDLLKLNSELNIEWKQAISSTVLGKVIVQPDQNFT

| Binder | IC50 [1] [nM] | binding vs Reference Sequence (=100%) [2] [%] | binding vs Reference Sequence (=100%) [3] [%] | binding vs Reference Sequence (=100%) [4] [%] | binding vs Reference Sequence (=100%) [5] [%] |
| --- | --- | --- | --- | --- | --- |
| B1 | 0.091 | – | – | – | – |
| B2 | 0.035 | – | – | – | – |
| B3 | 0.043 | – | – | – | – |
| B4 | 0.048 | – | – | – | – |
| B5 | – | 20 | 2 | 17 | 2 |
| B6 | – | 13 | 1 | 17 | 2 |

Reference: US20140205597A1 (published 2014)
